# In doi:10.1101/2021.03.16.435520 (bioRxiv, 2021):
# B1: IRE1-KR-R887A, unphosphorylated (domain or fragment)
# chain: GSSPSLEQDDGDEETSVVIVGKISFCPKDVLGHGAEGTIVYRGMFDNRDVAVKRILPECFSFADREVQLLRESDEHPNVIRYFCTEKDRQFQYIAIELCAATLQEYVEQKDFAHLGLEPITLLQQTTSGLAHLHSLNIVHRDLKPHNILISMPNAHGKIKAMISDFGLCKKLAVGRHSFSRRSGVPGTEGWIAPEMLSEDCKENPTYTVDIFSAGCVFYYVISEGSHPFGKSLQRQANILLGACSLDCLHPEKHEDVIARELIEKMIAMDPQKRPSAKHVLKHPFFWSLEKQLQFFQDVSDRIEKESLDGPIVKQLERGGRAVVKMDWRENITVPLQTDLAKFRTYKGGSVRDLLRAMRNKKHHYRELPAEVRETLGSLPDDFVCYFTSRFPHLLAHTYRAMELCSHERLFQPYYFHEPPEPQPPVTPDAL
# Molecular target: the molecule itself
# Experiment: cross-linking
protein,measurement,value
B1,stoichiometry N,2
